Data taken from patent publication US20210206842A1 (NATIONAL RESEARCH COUNCIL OF CANADA, published 2021).

Tests used:
[1] = target: T1, FC5DIE3IR recombinant protein; assay: ELISA, hybridoma supernatant on coated purified FC5DIE3IR
T1 construct: Made in CHO-3E7 cells; also called FC5DIE31R; FC5DIE3R
Experimental: (§1) Screening. Hybridoma supernatants were screened by ELISA to detect specific binders. To this end, 96-well half-area plates (Costar #3690) were coated with 25 μl of FC5DIE3IR or FC5-VHH or FC5-hFc-1X0 at 5 μg/ml in PBS and incubated overnight at 4° C. Microplates were washed 3 times with PBS, blocked with PBS-BSA 1%, and 25 μl of hybridoma supernatants were added and incubated at 37° C., 5% CO₂ for 2 hours. […] After 4 washes with PBS-Tween 20 0.05%, 25 μl of a 1 mg/ml pNPP substrate solution was added and further incubated for one hour at 37° C.

human Nav1.7 polypeptide [2] = target: T2, human Nav1.7 polypeptide (human, UniProt Q15858 1-1988); assay: cell ELISA, hybridoma supernatant on live CHO cells expressing human Nav1.7, duplicate 2
T2 construct: also called hNav1.7; SCN9A
Experimental: (§2) Cell-ELISA. Sterile 96-well plates (Costar #3595) were pre-treated with 50 μl/well of branched polyethyleneimine (PEI, Sigma Cat #408727) at 25 μg/ml in PBS for 30 min at room temperature. PEI was removed and CHO-3E7 or hNAᵥ1.7-CHO (ChanTest cat #CT4003) were seeded at 6×10⁵ cells per well in FreeStyle F17 Expression Medium (Gibco Cat #A1383501) and incubated overnight at 37° C., 5% CO₂. Microplates were blocked with Starting block (Thermofisher Cat #37538) for 30 min at room temperature, and 50 μl of hybridoma supernatants were added and incubated at 4° C. for 3 h. […] After 10 washes with PBS, 50 μl of TMB substrate solution (Pierce Cat #34021) was added and further incubated for 60 min at room temperature.

VHH FC5 [3] = target: T3, VHH FC5; assay: ELISA, hybridoma supernatant on coated purified FC5-VHH
T3 construct: put together from its FR and CDR entries; also called FC5-VHH; FC5 control
T3 sequence (VHH, as listed by the source): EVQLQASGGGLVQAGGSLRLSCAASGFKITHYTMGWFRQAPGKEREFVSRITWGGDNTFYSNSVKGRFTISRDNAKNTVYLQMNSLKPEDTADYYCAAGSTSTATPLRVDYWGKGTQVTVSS
Experimental: as §1

[4] = target: T1, FC5DIE3IR recombinant protein; assay: SPR, mAb 1G5 and FC5DIE3IR, 25 C
VHH FC5 [5] = target: T3, VHH FC5; assay: SPR, mAb 1G5 and FC5, 25 C
[6] = target: T1, FC5DIE3IR recombinant protein; assay: ELISA on coated FC5DIE3IR, serial dilutions of purified mAb, OD 405 nm; fit One site - Specific binding with Hill slope; apparent Kd in the unit of the concentration axis (nM), the table itself prints no unit
Experimental: as §1
(§3) Evaluation of apparent affinity in ELISA. Purified antibodies were assessed for their binding activity by ELISA in a dose-dependent binding curve. Serial 1/3 dilutions of purified mAbs starting at 120 nM were applied onto wells and ELISA was performed as described above (screening section). The data were analyzed with GraphPad Prism software using one-site specific binding-with Hill slope non-linear regression curve fit model to determine Bₘₐₓ (maximum specific binding) and Kdₐₚₚ (concentration needed to achieve a half-maximum binding at equilibrium) for each mAb tested.

human Nav1.7 polypeptide [7] = target: T2, human Nav1.7 polypeptide; assay: cell ELISA, hybridoma supernatant on live CHO cells expressing human Nav1.7, duplicate 1
Experimental: as §2

[8] = target: T1, FC5DIE3IR recombinant protein; assay: ELISA on coated FC5DIE3IR, serial dilutions of purified mAb; fit One site - Specific binding with Hill slope
Experimental: as §1, §3

human Nav1.7 polypeptide [9] = target: T2, human Nav1.7 polypeptide; assay: cell-based or functional assay
[10] = target: T1, FC5DIE3IR recombinant protein; assay: apparent KD (Kdapp), ELISA dose curve of purified mAb on coated FC5DIE3IR; 1G5 clone (IgG1), ELISA apparent KD
Experimental: as §1, §3

peptide #2b (20 aa) = target: T4, peptide #2b (20 aa) (human); assay: ELISA on coated P2b, mAb at the dilutions 1:1000, 1:5000 and 1:10000, Abs 450nm
T4 construct: Custom-synthesized (Biomatik); also called pep #2b; P2b
T4 peptide: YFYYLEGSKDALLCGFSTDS
Experimental: (§4) The peptides were custom-synthesized (Biomatik) and tested for antibody binding by ELISA. […] The wells were blocked with 1% BSA in TBS-T for 30 min and then incubated with 1:1000 dilution of anti-hNaᵥ1.7 mAb at room temperature (RT) for one hr.

[11] = target: T1, FC5DIE3IR recombinant protein; assay: SPR (Biacore T200), single cycle kinetics, Fc-captured mAb, FC5DIE3IR flowed (320 nM-20 nM), 1:1 model, 25 C
Experimental: (§5) HBS-EP running buffer used for SPR experiments. […] Test binding experiments of FC5 control and FC5DIE3IR involved flowing 1 μM concentrations of SEC-pure material over the mAb surface at a flow rate of 30 μl/min for 5 min. Surfaces could be regenerated using 10 mM glycine, pH 1.7, with a 120 sec pulse at 20 μl/min. All SPR experiments were evaluated with Biacore T200 Software v 3.0. […] Regeneration conditions were the same as above. Data were fit to a 1:1 binding model and analyzed using the Biacore T200 Software v3.0.

peptide #40b (40 aa) = target: T5, peptide #40b (40 aa) (human); assay: ELISA on coated peptide or FC5DIE3IR, mAb detected with HRP anti-mouse Fc, Abs 450nm
T5 construct: Custom-synthesized (Biomatik); also called pep #40b; P40b
Experimental: as §4

peptide #40a (40 aa) = target: T6, peptide #40a (40 aa) (human); assay: as above
T6 construct: Custom-synthesized (Biomatik); also called pep #40a; P40a
T6 peptide: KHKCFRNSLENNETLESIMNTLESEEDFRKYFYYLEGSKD
Experimental: as §4

VHH FC5 [12] = target: T3, VHH FC5; assay: SPR, single cycle kinetics, Fc-captured mAb, FC5 flowed, 25 C
Experimental: as §5

peptide #2a (20 aa) = target: T7, peptide #2a (20 aa) (human); assay: ELISA on coated P2a, mAb at the dilutions 1:1000, 1:5000 and 1:10000, Abs 450nm
T7 construct: Custom-synthesized (Biomatik); also called pep #2a; P2a
T7 peptide: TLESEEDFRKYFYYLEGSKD
Experimental: as §4

[13] = target: T1, FC5DIE3IR recombinant protein; assay: SPR (Biacore T200), ligand 3A8 captured by anti-mouse IgG, FC5DIE3IR flowed at 1 µM, 25 °C, 1:1 binding model
Experimental: as §5

[14] = target: T1, FC5DIE3IR recombinant protein; assay: apparent KD (Kdapp), ELISA dose curve of purified mAb on coated FC5DIE3IR; 3A8 clone (IgG2a), ELISA apparent KD
Experimental: as §1, §3

VHH FC5 [15] = target: T3, VHH FC5; assay: SPR (Biacore T200), ligand 3A8 captured by anti-mouse IgG, VHH FC5 flowed at 1 µM, 25 °C, 1:1 binding model; the fit is printed under a flat sensorgram and the filing says that 3A8 did not bind FC5
Experimental: as §5

VHH FC5 [16] = target: T3, VHH FC5; assay: SPR (Biacore T200), ligand 3A8 captured by anti-mouse IgG, VHH FC5 flowed at 1 µM, 25 °C, 1:1 binding model; the label reads KD: without a unit, M follows from kd/ka; the fit is printed under a flat sensorgram and the filing says that 3A8 did not bind FC5
Experimental: as §5

[17] = target: T1, FC5DIE3IR recombinant protein; assay: SPR single cycle kinetics, ligand 3A8 Fc-captured, FC5DIE3IR flowed in five rising concentrations, 1:1 binding model
Experimental: as §5

human Nav1.7 polypeptide [18] = target: T2, human Nav1.7 polypeptide; assay: cell-based or functional assay; remark: listed apart in the source
peptide #2 (30 aa) = target: T8, peptide #2 (30 aa) (human); assay: ELISA on coated peptide or FC5DIE3IR, mAb detected with HRP anti-mouse Fc, Abs 450nm
T8 construct: Custom-synthesized (Biomatik); also called pep #2; P2
T8 peptide: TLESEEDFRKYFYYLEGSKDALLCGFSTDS
Experimental: as §4

peptide #3 (30 aa) = target: T9, peptide #3 (30 aa) (human); assay: as above
T9 construct: Custom-synthesized (Biomatik); also called pep #3; P3
T9 sequence (peptide, as listed by the source): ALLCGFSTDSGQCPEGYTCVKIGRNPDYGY
Experimental: as §4

[19] = target: T1, FC5DIE3IR recombinant protein; assay: ELISA dose curve of purified mAb on coated FC5DIE3IR
Experimental: as §1, §3

B1: mAb 1G5 (antibody, V domains shown)
VH: QVQLQQPGAELVKPGASVKLSCKASGYTFTSYWINWVKQRPGQGLEWIGNIYPGNSNTNYNEKFKSKATLTVDKSSSTAYMQLSSLTSEDSAVYYCARRYYYDYDDAMDYWGQGTSVTVSS
VL: DIVLTQSPASLAVSLGQRATISCRASESVDSYGNGFMHWYQQKPGQPPKLLIYRASNLESGIPARVSGSGSRTDFTLTINPVEADDVATYYCQQSNEDPWTFGGGTKLEIK
notes: also called negative control
ELISA signal (OD 405 nm) [1]: 1.14 OD 405 nm | cell ELISA signal (OD 450 nm) (human Nav1.7 polypeptide [2]): 0.225 OD 450 nm | ELISA signal (OD 405 nm) (VHH FC5 [3]): 0.096 OD 405 nm | Kd [4]: 186 nM | koff [4]: 0.0136 s⁻¹ | kon [4]: 72900 M⁻¹ s⁻¹ | Kd (VHH FC5 [5]): 58.8 nM | koff (VHH FC5 [5]): 0.017 s⁻¹ | kon (VHH FC5 [5]): 289000 M⁻¹ s⁻¹ | Kd [6]: 5.04 nM | cell ELISA signal (OD 450 nm) (human Nav1.7 polypeptide [7]): 0.172 OD 450 nm | Bmax [8]: 0.635 OD405 nm | Reduction currents (%) at 1 µM (human Nav1.7 polypeptide [9]): 0.77% | Kd [10]: 4.8 nM

B2: anti-hNav1.7 mAb 2G11 (antibody, V domains shown)
VH: QVQLQQPGAELVKPGASVKLSCKASGYTFTTYWMHWVKQRPGQGLEWIGEINPSNGRANYNEKFKSKATLTVDKSSSTAYMQLSSLTSEDSAVYYCLRSLGYFDYWGQGTTLTVSS
VL: DVVMTQSPLSLPVSLGDQASISCRSSQSLVHSNGNTYLHWYLQKAGQSPKFLIYKVSNRFSGVPDRFSGSGSGTDFTLKISRVEAEDLGVYFCSQSTHVPYTFGGGTKLEIK
ELISA signal (OD 405 nm) [1]: 0.86 OD 405 nm | cell ELISA signal (OD 450 nm) (human Nav1.7 polypeptide [2]): 0.049 OD 450 nm | ELISA signal (OD 405 nm) (VHH FC5 [3]): 0.021 OD 405 nm | binding result (peptide #2b (20 aa)): no binding (tested: 1:1000 dilution) | Kd [6]: 0.847 nM | cell ELISA signal (OD 450 nm) (human Nav1.7 polypeptide [7]): 0.041 OD 450 nm | Bmax [8]: 1.84 OD405 nm | Kd [11]: 55.1 nM | koff [11]: 0.000526 s⁻¹ | kon [11]: 9560 M⁻¹ s⁻¹ | binding result (peptide #40b (40 aa)): no binding | binding result (peptide #40a (40 aa)): binds | binding result (VHH FC5 [12]): no binding | binding result (peptide #2a (20 aa)): no binding (tested: 1:1000 dilution)

B3: anti-hNav1.7 mAb 3A8 (antibody, V domains shown)
VH: QVQLQQPGAELVKPGASVKLSCKASGYTFTNYWMHWVKQRPGQGLEWIGEINPSNGRANYNEKFKSKATLTVDKSSSTAYMQLSSLTSEDSAVYYCARSPYGYYDYWGQGTTLTVSS
VL: DVLMTQTPLSLPVSLGDQASISCRSSQSLLHSNGNTYFHWYLQKPGQSPKLLIYKVSNRFFGVPDRFSGSGSGTDFTLKISRVEAEDLGVYFCSQITHVPLTFGAGTKLELK
notes: also called F233-3A8
ELISA signal (OD 405 nm) [1]: 0.995 OD 405 nm | cell ELISA signal (OD 450 nm) (human Nav1.7 polypeptide [2]): 0.183 OD 450 nm | ELISA signal (OD 405 nm) (VHH FC5 [3]): 0.029 OD 405 nm | Kd [13]: 17.1 nM | koff [13]: 4.52e-05 s⁻¹ | kon [13]: 2640 M⁻¹ s⁻¹ | Kd [14]: 1.9 nM | koff (VHH FC5 [15]): 0.0138 s⁻¹ | kon (VHH FC5 [15]): 28700 M⁻¹ s⁻¹ | Kd (VHH FC5 [16]): 482 nM | Kd [6]: 1.84 nM | cell ELISA signal (OD 450 nm) (human Nav1.7 polypeptide [7]): 0.102 OD 450 nm | Bmax [8]: 2.15 OD405 nm | Kd [17]: 7.59 nM | koff [17]: 3.15e-05 s⁻¹ | kon [17]: 4160 M⁻¹ s⁻¹ | Kd [11]: 36.7 nM | koff [11]: 0.000259 s⁻¹ | kon [11]: 7050 M⁻¹ s⁻¹ | Concentration response relationship (IC50), hNav1.7 currents, whole-cell patch clamp, hNav1.7-HEK293 cells, resting/closed state (human Nav1.7 polypeptide [9]): 850 nM | Efficacy (degree of maximum inhibition) % (human Nav1.7 polypeptide [9]): 16% | Reduction currents (%) at 0.5 µM (human Nav1.7 polypeptide [9]): 3.6% | Reduction currents (%) at 1 µM (human Nav1.7 polypeptide [9]): 8.2% | Reduction currents (%) at 2 µM (human Nav1.7 polypeptide [9]): 16% | Reduction currents (%) at 3 µM (human Nav1.7 polypeptide [9]): 15.4% | Time constant of the block of the hNav1.7 currents (1 µM) (human Nav1.7 polypeptide [9]): 184 s | Time constant of the block of the hNav1.7 currents (2 µM) (human Nav1.7 polypeptide [9]): 105 s | concentration response relationship (IC50), hNav1.7 currents, whole-cell patch clamp, hNav1.7-HEK293 cells (human Nav1.7 polypeptide [18]): 900 nM | binding result (peptide #2 (30 aa)): binds | binding result (peptide #40a (40 aa)): binds | binding result (peptide #3 (30 aa)): no binding | fold lower apparent KD than the 1G5 clone [19]: ~2.5 fold | binding result (peptide #2a (20 aa)): binds
